How the values were obtained:
[1] = biological target: T1, human TIM-3 extracellular domain-human IgG1 Fc fusion protein (human, UniProt Q8TDQ0 22-199); assay: ELISA; 40°C 0 day, against 0 day
T1 construct: Made in house or bought (ACROBiosystems TM3-H5258); also called TIM-3-hFc; not shown: human IgG1 Fc

[2] = biological target: T2, human PD-1 extracellular domain protein expressed in Example 1 (tag not stated) (human, UniProt Q15116 25-170); assay: ELISA; 40°C 0 day, against 0 day
T2 construct: extracellular domain; also called PD-1 protein; not shown: human IgG1 Fc or his tag

[3] = biological target: T1, human TIM-3 extracellular domain-human …; assay: ELISA; pH 6.0, 37°C 7 days, against 0 day
[4] = biological target: T2, human PD-1 extracellular domain protein …; assay: ELISA; pH 6.0, 37°C 7 days, against 0 day
[5] = biological target: T1, human TIM-3 extracellular domain-human …; assay: ELISA; pH 5.5, 37°C 10 days, against 0 day
[6] = biological target: T2, human PD-1 extracellular domain protein …; assay: ELISA; pH 5.5, 37°C 10 days, against 0 day
[7] = biological target: T1, human TIM-3 extracellular domain-human …; assay: ELISA; 15 mg/mL, His buffer pH 6.0, 37°C 0 day (-80°C)
[8] = biological target: T2, human PD-1 extracellular domain protein …; assay: as above
[9] = biological target: T2, human PD-1 extracellular domain protein …; assay: ELISA; pH 5.5, 37°C 5 days, against 0 day
[10] = biological target: T1, human TIM-3 extracellular domain-human …; assay: ELISA; 28.5 mg/mL, His buffer pH 5.5, 37°C 0 day (-80°C)
[11] = biological target: T2, human PD-1 extracellular domain protein …; assay: as above
[12] = biological target: T2, human PD-1 extracellular domain protein …; assay: ELISA, PD-1 coated
Method: PD-1 expressed in Example 1 was diluted to a concentration of 1 μg/ml with PBS buffer, pH 7.4, and added to a 96-well microplate (Corning, CLS3590-100EA) at 50 μl per well, thereby incubating in an incubator at 37° C. for 2 hours. After discarding the liquid, a blocking solution of 5% skimmed milk (Shanghai Shenggong Biological Engineering Co., Ltd., A600669-0250) diluted with PBS was added at 200 μl per well, followed by incubating at 37° C. for 3 hours or 4° C. overnight (16-18 hours)) for blocking. Subsequently, the blocking solution was discarded, and the microplate was washed 5 times with PBST buffer (pH 7.4 PBS containing 0.05% tween-20). […] Subsequently, the microplate was washed 5 times with PBST, then 50 μl/well of 1:2500 diluted HRP-labeled secondary antibody (Jackson Immuno Research, 115-035-003) was added, thereby incubating at 37° C. for 1 hour. After washing the microplate 5 times with PBST, 50 μl/well TMB chromogenic substrate (KPL, 52-00-03) was added, then incubated at room temperature for 5-10 min. Finally, 50 μl/well of 1M H₂SO₄ was added to stop the reaction. […] Go microplate reader (ThermoFisher, 51119200) was used to read the absorption value at 450 nm and the EC50 based on the OD value was calculated.

Human PD-1-his = biological target: T3, Human PD-1-his (human, UniProt Q15116 25-170); assay: SPR Biacore, antibody captured on Protein A, antigen in flow
T3 construct: extracellular domain; not shown: his tag
Method: (§1) First, Protein A (Thermo Pierce, Cat #21181) was conjugated to the biosensing chip CMS (Cat. #BR-1005-30, GE), and the chip was activated with the newly prepared 50 mM NHS (N-hydroxysuccinimide) and 200 mM EDC [1-ethyl-3-(3-dimethylaminopropyl) carbodiimide hydrochloride], then 10 μg/ml Protein A prepared with 10 mM NaAC (pH 4.0) was injected. […] The flow rate was 30 μl/min, the binding time was 180 seconds and the dissociation time is 300 seconds. Subsequently, the chip was washed for 30s with 10 mM Glycine-HCl (pH 1.5) at 30 μl/min. The data were fitted with a 1:1 Langmuir model using the software of Biacore T200 evaluation version 3.0 (GE), and the affinity value KD was obtained.

[13] = biological target: T4, human TIM-3 extracellular domain-his tag protein (human, UniProt Q8TDQ0 22-199); assay: as above
T4 construct: Made in house or bought (ACROBiosystems TM3-H5229); also called TIM-3-his; Human Tim3-his; not shown: his tag
Method: as §1

[14] = biological target: T1, human TIM-3 extracellular domain-human …; assay: ELISA; pH 6.0, 37°C 7 days
[15] = biological target: T2, human PD-1 extracellular domain protein …; assay: ELISA; pH 6.0, 37°C 7 days
[16] = biological target: T1, human TIM-3 extracellular domain-human …; assay: ELISA; preparation buffer, 37°C 7 days, against 0 day
[17] = biological target: T2, human PD-1 extracellular domain protein …; assay: as above

B1: bispecific antibody LB141 (bispecific antibody, human IgG4 S228P, kappa)
light: EIVLTQSPATLSLSPGERATLSCRASKGVSTSGYSYLHWYQQKPGQAPRLLIYLASYLESGVPARFSGSGSGTDFTLTISSLEPEDFAVYYCQHSRDLPLTFGGGTKVEIKRTVAAPSVFIFPPSDEQLKSGTASVVCLLNNFYPREAKVQWKVDNALQSGNSQESVTEQDSKDSTYSLSSTLTLSKADYEKHKVYACEVTHQGLSSPVTKSFNRGEC
heavy: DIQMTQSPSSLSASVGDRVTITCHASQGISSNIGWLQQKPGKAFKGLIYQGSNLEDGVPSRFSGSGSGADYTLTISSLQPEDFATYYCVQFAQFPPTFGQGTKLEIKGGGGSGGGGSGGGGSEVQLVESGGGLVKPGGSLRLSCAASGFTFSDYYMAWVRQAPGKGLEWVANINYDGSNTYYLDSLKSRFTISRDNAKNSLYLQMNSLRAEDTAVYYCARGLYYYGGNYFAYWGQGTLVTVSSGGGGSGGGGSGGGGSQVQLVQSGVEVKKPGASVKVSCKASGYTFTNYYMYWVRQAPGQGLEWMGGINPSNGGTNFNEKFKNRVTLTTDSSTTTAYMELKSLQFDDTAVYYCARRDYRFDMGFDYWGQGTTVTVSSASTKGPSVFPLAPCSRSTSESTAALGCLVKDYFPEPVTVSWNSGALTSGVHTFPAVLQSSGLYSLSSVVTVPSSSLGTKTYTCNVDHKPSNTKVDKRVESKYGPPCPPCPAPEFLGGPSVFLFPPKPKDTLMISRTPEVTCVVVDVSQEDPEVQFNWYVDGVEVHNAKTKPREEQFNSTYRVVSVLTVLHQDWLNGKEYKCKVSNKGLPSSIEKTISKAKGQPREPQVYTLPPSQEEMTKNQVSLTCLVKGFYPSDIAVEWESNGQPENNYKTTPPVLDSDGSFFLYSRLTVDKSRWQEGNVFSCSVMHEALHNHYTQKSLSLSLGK
notes: ab6VL-(G4S)3-ab6VH-(G4S)3-PemVH-hIgG4 with PemVL-κ
Fold change of EC50 [1]: 1 ratio | Fold change of EC50 [2]: 1 ratio | Fold change of EC50 [3]: 0.83 ratio | Fold change of EC50 [4]: 0.79 ratio | Fold change of EC50 [5]: 0.85 ratio | Fold change of EC50 [6]: 1.1 ratio | EC50 [7]: 0.164 nM | EC50 [8]: 0.146 nM | Fold change of EC50 [9]: 1.2 ratio | EC50 [10]: 0.36 nM | EC50 [11]: 0.181 nM | EC50 [12]: 0.127 nM | Kd (Human PD-1-his): 6.63 nM | koff (Human PD-1-his): 0.00285 s⁻¹ | kon (Human PD-1-his): 430000 M⁻¹ s⁻¹ | Kd [13]: 5.05 nM | koff [13]: 0.00393 s⁻¹ | kon [13]: 777000 M⁻¹ s⁻¹ | EC50 [14]: 0.136 nM | EC50 [15]: 0.116 nM | Fold change of EC50 [16]: 1.07 ratio | Fold change of EC50 [17]: 0.86 ratio

Source: patent US20210269521A1 (L AND L BIOPHARMA, published 2021)
